Experimental data: patent publication US20220162261A1 (published 2022)
Like-named read-outs stand apart in the source and are kept apart here. Numbered stars: 1 amine (or outer) side, 2 acyl side, 3 side chain; on linkers, the order of the positions; unused ones are H or OH. Bridge positions count the residues as written; N and C are the ends. Square brackets hold non-standard residues; d marks the D form. Ends that are not written are not given here. Glu(OMe) = L-glutamic acid gamma-methyl ester, COC(=O)CC[C@H](N[*:1])C(=O)[*:2]; Phe(4-COOH) = N[C@@H](Cc1ccc(C(=O)O)cc1)C(=O)O; Phe(4-tBu) = CC(C)(C)c1ccc(C[C@H](N)C(=O)O)cc1; NMeR = CN[C@@H](CCCNC(=N)N)C(=O)O; β3hE = N[C@@H](CCC(=O)O)CC(=O)O; NMeK = CN[C@@H](CCCCN)C(=O)O; Pen = CC(C)(S)[C@H](N)C(=O)O; βAla = NCCC(=O)O

Experiments:
[1] = molecular target: T1, human α4β1 integrin on cells (human, UniProt P13612 34-1032; P05556 21-798); test: Jurkat cell adhesion to VCAM-1
T1 construct: whole, on cells; also called α4β1 cell; Jurkat cells

[2] = molecular target: T2, α4β1 (R&D Systems #5668-A4) (UniProt P13612 34-970; P05556 21-728, limits assumed); test: competition ELISA vs VCAM-1
T2 construct: bought; also called soluble α4β1

[3] = molecular target: T3, rh integrin α4β7 (R&D Systems #5397-A30) (human, UniProt P13612 34-970; P26010 20-723); test: competition ELISA vs MAdCAM-1
T3 construct: bought; coated on a nickel coated plate; also called immobilized α4β7; immobilized α4β7 integrin protein

[4] = molecular target: T4, human α4β7 integrin on cells (human, UniProt P13612 34-1032; P26010 20-798); test: RPMI8866 cell adhesion to MAdCAM-1
T4 construct: whole, on cells; also called α4β7 cell (Hu); RPMI8866 cells

[5] = molecular target: T5, mouse α4β7 integrin on TK1 cells (mouse, UniProt Q00651 41-1039; P26011 20-806); test: TK1 cell adhesion to MAdCAM-1
T5 construct: whole, on cells; also called α4β7 cell (Mu); Cell Adhesion α4β7 Mouse
T5 sequence (Q00651 41-1039, chain 1 of 2): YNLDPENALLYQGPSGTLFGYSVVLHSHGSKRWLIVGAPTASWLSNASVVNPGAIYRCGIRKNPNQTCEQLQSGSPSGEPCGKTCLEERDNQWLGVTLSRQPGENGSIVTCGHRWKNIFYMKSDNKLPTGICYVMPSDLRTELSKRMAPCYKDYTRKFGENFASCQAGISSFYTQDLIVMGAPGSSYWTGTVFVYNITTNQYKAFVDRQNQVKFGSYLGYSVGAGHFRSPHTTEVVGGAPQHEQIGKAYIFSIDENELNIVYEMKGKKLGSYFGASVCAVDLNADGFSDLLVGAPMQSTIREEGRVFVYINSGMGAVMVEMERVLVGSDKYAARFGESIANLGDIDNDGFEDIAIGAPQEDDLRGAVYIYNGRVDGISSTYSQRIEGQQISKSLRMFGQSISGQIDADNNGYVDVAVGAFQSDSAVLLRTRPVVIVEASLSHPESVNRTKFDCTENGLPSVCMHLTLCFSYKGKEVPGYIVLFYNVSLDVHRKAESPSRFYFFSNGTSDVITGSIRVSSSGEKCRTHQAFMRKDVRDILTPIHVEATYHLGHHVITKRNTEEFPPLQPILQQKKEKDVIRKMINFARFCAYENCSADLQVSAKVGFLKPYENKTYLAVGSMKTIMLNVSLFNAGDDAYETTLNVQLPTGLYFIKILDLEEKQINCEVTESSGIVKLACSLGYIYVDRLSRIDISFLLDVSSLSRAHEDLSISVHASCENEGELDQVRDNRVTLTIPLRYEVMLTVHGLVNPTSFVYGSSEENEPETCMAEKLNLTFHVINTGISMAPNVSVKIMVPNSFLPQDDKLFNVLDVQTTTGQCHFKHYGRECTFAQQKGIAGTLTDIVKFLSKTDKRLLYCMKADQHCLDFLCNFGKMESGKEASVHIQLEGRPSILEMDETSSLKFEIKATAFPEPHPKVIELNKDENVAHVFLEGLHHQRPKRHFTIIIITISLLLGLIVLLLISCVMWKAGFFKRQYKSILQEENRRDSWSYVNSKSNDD
T5 sequence (P26011 20-806, chain 2 of 2): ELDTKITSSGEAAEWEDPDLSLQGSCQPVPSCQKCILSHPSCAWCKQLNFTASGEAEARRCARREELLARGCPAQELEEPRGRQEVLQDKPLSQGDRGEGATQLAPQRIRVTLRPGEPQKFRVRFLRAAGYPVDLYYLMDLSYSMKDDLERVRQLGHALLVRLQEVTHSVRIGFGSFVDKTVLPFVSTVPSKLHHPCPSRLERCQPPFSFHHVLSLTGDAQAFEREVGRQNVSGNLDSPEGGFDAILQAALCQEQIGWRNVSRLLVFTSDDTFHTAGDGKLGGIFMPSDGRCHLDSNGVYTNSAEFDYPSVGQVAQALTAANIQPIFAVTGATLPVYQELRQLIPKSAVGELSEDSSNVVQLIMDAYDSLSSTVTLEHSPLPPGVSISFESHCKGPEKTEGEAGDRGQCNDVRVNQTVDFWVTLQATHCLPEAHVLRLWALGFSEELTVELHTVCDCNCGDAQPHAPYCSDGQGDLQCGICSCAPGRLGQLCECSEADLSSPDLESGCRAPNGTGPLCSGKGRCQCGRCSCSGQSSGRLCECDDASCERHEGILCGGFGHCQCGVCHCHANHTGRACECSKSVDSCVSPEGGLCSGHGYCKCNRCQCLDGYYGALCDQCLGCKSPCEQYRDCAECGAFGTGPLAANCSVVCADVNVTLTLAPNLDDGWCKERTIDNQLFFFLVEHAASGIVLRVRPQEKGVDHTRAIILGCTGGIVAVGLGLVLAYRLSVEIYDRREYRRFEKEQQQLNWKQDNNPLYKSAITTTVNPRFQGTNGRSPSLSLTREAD

[6] = molecular target: T3, rh integrin α4β7 (R&D Systems #5397-A30); test: competition ELISA vs MAdCAM-1; remark: listed apart in the source
[7] = molecular target: T4, human α4β7 integrin on cells; test: PBMC memory T cell adhesion
[8] = molecular target: T4, human α4β7 integrin on cells; test: RPMI8866 cell adhesion to MAdCAM-1; remark: listed apart in the source
[9] = molecular target: T2, α4β1 (R&D Systems #5668-A4); test: competition ELISA vs VCAM-1; remark: listed apart in the source

| Binder | IC50 [6] | IC50 [7] | IC50 [8] | other results |
| --- | --- | --- | --- | --- |
| Ac-CRSDTLCGEK-NH2 (disulfide 1-7 (inferred); also: dimer linked by PEG25, attachment not given here, also called peptide 197) [SEQ ID NO: 197] | – | – | – | IC50 [1]: > 100000 nM; IC50 [2]: 964 nM; IC50 [3]: 36 nM; IC50 [4]: 301 nM |
| Ac-[Pen][NMeR]SDTL[Pen][Phe(4-COOH)]E[NMeK]-NH2 (disulfide 1-7; not fully specified (residue 10); printed as (Ac Pen N-Me-R S D T L Pen F(4-COOH) E N-Me-K NH2)2 DIG, disulfide Pen-Pen; also: homodimer (…)2 DIG via Lys10 NZ) [SEQ ID NO: 147] | ≤ 10 nM | ≤ 10 nM | ≤ 10 nM | IC50 [5]: ≤ 10 nM |
| Ac-[Pen][NMeR]SDTL[Pen][Phe(4-COOH)][β3hE][NMeK]-NH2 (disulfide 1-7; not fully specified (residue 10); printed as (Ac Pen N-Me-R S D T L Pen F(4-COOH) b-H-E N-Me-K NH2)2 DIG, disulfide Pen-Pen; also: homodimer (…)2 DIG via Lys10 NZ) [SEQ ID NO: 148] | ≤ 10 nM | – | ≤ 10 nM | IC50 [5]: ≤ 10 nM |
| XRSDTLXWE (Ac Pen N-Me-R S D T L Pen W b-H-E OH; disulfide Pen-Pen) [SEQ ID NO: 146] | – | – | > 50 nM | IC50 [5]: > 50 nM; IC50 [9]: > 1000 nM |
| Ac-[Pen][NMeR]SDTL[Pen][Phe(4-tBu)][β3hE]-NH2 (disulfide 1-7; SMILES CC(=O)N[C@@H]1C(=O)N(C)[C@@H](CCCNC(=N)N)C(=O)N[C@@H](CO)C(=O)N[C@@H](CC(=O)O)C(=O)N[C@@H]([C@@H](C)O)C(=O)N[C@@H](CC(C)C)C(=O)N[C@H](C(=O)N[C@@H](Cc2ccc(C(C)(C)C)cc2)C(=O)N[C@@H](CCC(=O)O)CC(N)=O)C(C)(C)SSC1(C)C) [SEQ ID NO: 165] | – | > 100 nM | > 10 nM | – |
| Ac-[Pen][NMeR]SDTL[Pen][Phe(4-tBu)][β3hE][dK]-NH2 (disulfide 1-7; not fully specified (residue 10); printed as (Ac Pen N-Me-R S D T L Pen F(4-tBu) b-H-E k NH2)2 IDA PEG4 Biotin, disulfide Pen-Pen; also: homodimer (…)2 IDA PEG4 Biotin via D-Lys10 NZ) [SEQ ID NO: 167] | – | ≤ 10 nM | ≤ 10 nM | – |
| Ac-[Pen][NMeR]SDTL[Pen][Phe(4-tBu)]E[NMeK]-NH2 (disulfide 1-7; not fully specified (residue 10); printed as (Ac Pen N-Me-R S D T L Pen F(4tBu) E N-Me-K NH2)2 DIG, disulfide Pen-Pen; also: homodimer, two subunits joined by DIG linker) [SEQ ID NO: 133] | ≤ 10 nM | ≤ 10 nM | – | – |
| Ac-[Pen][NMeR]SDTL[Pen][Phe(4-COOH)][β3hE][dK]-NH2 (disulfide 1-7; not fully specified (residue 10); printed as (Ac Pen N-Me-R S D T L Pen F(4-COOH) b-H-E k NH2)2 DIG, disulfide Pen-Pen; also: homodimer, two subunits joined by DIG linker) [SEQ ID NO: 130] | ≤ 10 nM | ≤ 10 nM | ≤ 10 nM | – |
| Ac-[Pen][NMeR]SDTL[Pen][Phe(4-COOH)]E[dK]-NH2 (disulfide 1-7; not fully specified (residue 10); printed as (Ac Pen N-Me-R S D T L Pen F(4-COOH) E k NH2)2 DIG, disulfide Pen-Pen; also: homodimer: two subunits joined by DIG linker) [SEQ ID NO: 129] | ≤ 10 nM | ≤ 10 nM | ≤ 10 nM | – |
| Ac-[Pen][NMeR]SDTL[Pen]YE[dK]-NH2 (disulfide 1-7; not fully specified (residue 10); printed as (Ac Pen N-Me-R S D T L Pen Y E k NH2)2 DIG, disulfide Pen-Pen; also: dimer, two subunits joined by DIG linker) [SEQ ID NO: 22] | ≤ 10 nM | – | ≤ 10 nM | IC50 [9]: > 100 nM |
| Ac-[Pen][NMeR]SDTL[Pen]W[Glu(OMe)][dK]-NH2 (disulfide 1-7; not fully specified (residue 10); printed as (Ac Pen N-Me-R S D T L Pen W E(OMe) k NH2)2 DIG, disulfide Pen-Pen; also: homodimer: two subunits linked by DIG via D-Lys10 side chain) [SEQ ID NO: 86] | – | – | ≤ 10 nM | IC50 [5]: ≤ 10 nM |
| Ac-[Pen][NMeR]SDTL[Pen]W[β3hE][NMeK]-NH2 (disulfide 1-7; not fully specified (residue 10); printed as (Ac Pen N-Me-R S D T L Pen W b-H-E N-Me-K NH2)2 DIG, disulfide Pen-Pen; also: homodimer (…)2 DIG via Lys10 NZ) [SEQ ID NO: 141] | ≤ 10 nM | – | ≤ 10 nM | IC50 [9]: > 500 nM |
| Ac-[Pen][NMeR]SDTL[Pen][Phe(4-tBu)][β3hE][dK]-OH (disulfide 1-7; not fully specified (residue 10); printed as (Ac Pen N-Me-R S D T L Pen F(4tBu) b-H-E k OH)2 DIG, disulfide Pen-Pen; also: homodimer (…)2 DIG via D-Lys10 NZ) [SEQ ID NO: 168] | – | ≤ 10 nM | ≤ 10 nM | – |
| [βAla][Pen][NMeR]SDTL[Pen]WE-NH2 (disulfide 2-8; not fully specified (N-terminus); printed as DIG (NH2 Beta-Ala Pen N-Me-R S D T L Pen W E NH2)2, disulfide Pen-Pen; also: homodimer: two subunits linked by DIG via N-terminal Beta-Ala amine, linker printed at the N-terminus) [SEQ ID NO: 54] | – | – | > 25 nM | IC50 [9]: > 100 nM |
| Ac-[Pen][NMeR]SDTL[Pen][Phe(4-tBu)][β3hE][dK]-NH2 (disulfide 1-7; not fully specified (residue 10); printed as (Ac Pen N-Me-R S D T L Pen F(4-tBu) b-H-E k NH2)2 IDA, disulfide Pen-Pen; also: homodimer (…)2 IDA via D-Lys10 NZ) [SEQ ID NO: 166] | – | ≤ 10 nM | ≤ 10 nM | – |
| Ac-C[NMeR]SDTLCGE-NH2 (disulfide 1-7 (inferred), also called peptide 198) [SEQ ID NO: 198] | – | – | – | IC50 [1]: > 100000 nM; IC50 [2]: 1290 nM; IC50 [3]: 20 nM; IC50 [4]: 1120 nM |
